Measurements: article PMC5620058, “IL-12p35 induces expansion of IL-10 and IL-35-expressing regulatory B cells and ameliorates autoimmune disease” (Nature Communications, 2017)

Molecular target: the molecule itself
Experiment: AUC; sedimentation equilibrium, native conditions, non-reducing; peak fraction of Superose-6 further purified by Centricon filtration

B1: mouse recombinant IL-12p35 (rIL-12p35; HBM-p35-Flag-His) (natural protein, UniProt P43431 23-215, looked up)
chain: RVIPVSGPARCLSQSRNLLKTTDDMVKTAREKLKHYSCTAEDIDHEDITRDQTSTLKTCLPLELHKNESCLATRETSSTTRGSCLPPQKTSLMMTLCLGSIYEDLKMYQTEFQAINAALQNHNHQQIILDKGMLVAIDELMQSLNHNGETLRQKPPVGEADPYRVKMKLCILLHAFSTRVVTINRVMGYLSSA
notes: IL-12p35 (Il12a), mouse; cDNA amplified with the printed primers and cloned behind the honeybee melittin (HBM) secretion signal of pMIB; The same construct was obtained as a monomer (~27 kDa, FPLC fractions 29-30) and as a p35−p35 homodimer (~56-57 kDa, fractions 20-21); also called p35−p35; source: purified (Ni-NTA, Centricon filtration, Sephacryl S-200 and Superose-6 FPLC)
stoichiometry N: 2
